Measurements taken from patent publication US20030143697A1.

Legend:
human IL-13 (human) = human IL-13 (human) (UniProt P35225); test: cell-based or functional assay
human IL-4 (human) = human IL-4 (human) (UniProt P05112); test: cell-based or functional assay
[1] = target: recombinant human IL-1 (human); test: cell-based or functional assay
human IL-6 (human) [2] = target: human IL-6 (human) (UniProt P05231); test: cell-based or functional assay
human IL-6 (human) [3] = target: human IL-6 (human) (UniProt P05231); test: cell-based or functional assay; remark: listed apart in the source
human IL-6 (human) [4] = target: human IL-6 (human) (UniProt P05231); test: dissociation of 20 pM 125I-IL-6 from 500 pM mAb B-E8 after a 1000-fold excess of cold IL-6; Protein G-Sepharose precipitation
gp130 on PC12D cells = target: T1, gp130 on PC12D cells (UniProt P40190); test: cell-based or functional assay
T1 sequence (looked up): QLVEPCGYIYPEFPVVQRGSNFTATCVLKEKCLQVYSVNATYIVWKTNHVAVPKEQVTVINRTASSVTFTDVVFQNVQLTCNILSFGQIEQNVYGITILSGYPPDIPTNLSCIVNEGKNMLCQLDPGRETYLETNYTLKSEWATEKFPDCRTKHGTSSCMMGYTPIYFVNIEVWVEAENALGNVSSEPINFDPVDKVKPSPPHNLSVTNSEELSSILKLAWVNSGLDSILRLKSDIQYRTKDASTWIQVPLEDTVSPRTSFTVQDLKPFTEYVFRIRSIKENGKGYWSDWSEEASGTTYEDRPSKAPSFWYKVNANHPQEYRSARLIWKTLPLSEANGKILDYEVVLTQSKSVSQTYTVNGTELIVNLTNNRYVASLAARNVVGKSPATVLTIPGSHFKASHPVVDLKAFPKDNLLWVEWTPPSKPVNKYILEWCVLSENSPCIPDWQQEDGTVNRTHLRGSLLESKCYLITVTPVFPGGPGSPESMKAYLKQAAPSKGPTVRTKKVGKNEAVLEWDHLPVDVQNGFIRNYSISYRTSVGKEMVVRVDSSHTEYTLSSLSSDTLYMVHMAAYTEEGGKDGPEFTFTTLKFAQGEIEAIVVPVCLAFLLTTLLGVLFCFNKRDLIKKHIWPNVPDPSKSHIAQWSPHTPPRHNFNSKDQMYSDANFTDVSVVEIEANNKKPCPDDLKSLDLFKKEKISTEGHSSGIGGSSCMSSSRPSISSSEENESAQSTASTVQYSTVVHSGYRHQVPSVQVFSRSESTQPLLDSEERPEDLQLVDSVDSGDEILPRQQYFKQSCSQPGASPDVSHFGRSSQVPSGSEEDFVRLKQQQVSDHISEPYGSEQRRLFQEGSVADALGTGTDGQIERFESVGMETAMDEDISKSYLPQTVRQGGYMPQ

Chain of human IL-13 (human) (P35225 35-146 limits assumed): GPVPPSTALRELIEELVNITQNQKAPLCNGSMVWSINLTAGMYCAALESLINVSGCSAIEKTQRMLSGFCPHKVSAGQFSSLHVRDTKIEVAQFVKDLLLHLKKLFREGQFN
Chain of human IL-6 (human) (P05231 30-212 limits assumed): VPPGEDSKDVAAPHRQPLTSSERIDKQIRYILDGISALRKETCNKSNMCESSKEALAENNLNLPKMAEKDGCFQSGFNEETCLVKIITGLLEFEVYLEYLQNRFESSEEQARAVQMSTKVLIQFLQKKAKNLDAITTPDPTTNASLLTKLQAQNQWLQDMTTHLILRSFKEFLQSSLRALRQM
Chain of human IL-4 (human) (P05112 25-153 limits assumed): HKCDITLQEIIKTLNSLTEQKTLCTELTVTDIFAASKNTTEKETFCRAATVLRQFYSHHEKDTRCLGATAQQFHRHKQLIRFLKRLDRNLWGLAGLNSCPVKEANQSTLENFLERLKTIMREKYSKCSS

For IL-13Rα1.IL-4Rα.Fc (Fc fusion), the TF1 bioassay (MTS); IL-13 concentration at which growth is inhibited by 50% with 10 nM Trap (human IL-13 (human)) was 4 to 5 nM, the TF1 bioassay (MTS); highest IL-13 concentration whose growth effect is blocked by 10 nM Trap (human IL-13 (human)) was 2 nM and the TF1 bioassay (MTS); IL-4 concentration at which growth is inhibited by 50% with 10 nM Trap (human IL-4 (human)) was 3 to 4 nM. The TF1 bioassay (MTS); highest IL-4 concentration whose growth effect is blocked by 10 nM Trap (human IL-4 (human)) was 1 nM.

Molecule IL-4Rα.IL-13Rα1.Fc (Fc fusion) has a TF1 bioassay (MTS); IL-13 concentration at which growth is inhibited by 50% with 10 nM Trap (human IL-13 (human)) of 4 to 5 nM, a TF1 bioassay (MTS); highest IL-13 concentration whose growth effect is blocked by 10 nM Trap (human IL-13 (human)) of 2 nM and a TF1 bioassay (MTS); IL-4 concentration at which growth is inhibited by 50% with 10 nM Trap (human IL-4 (human)) of 3 to 4 nM. The TF1 bioassay (MTS); highest IL-4 concentration whose growth effect is blocked by 10 nM Trap (human IL-4 (human)) was 1 nM.

Molecule “IL-1-RI.Fc (from UniProt P14778 18-336) (Fc fusion)” has an IL-1-dependent production of IL-6 by MRC5 cells; highest IL-1 concentration blocked [1] of 10 to 20 pM.

In the case of “gp130-Fc•CNTFRα-Fc ligand Trap (Fc fusion)”, the IL-6-dependent proliferation of XG-1 cells (MTT assay) (fold molar excess over IL-6) (human IL-6 (human) [2]) is reported as 1000.

B1: anti-IL-6 monoclonal neutralizing antibody B-E8 (antibody, from another filing, V domains shown)
VH: QVTLKESGPGILKPSQTLSLTCSFSGFSLSTSGMGVGWIRQPSGKGLEWLAHIWWDDDKYYNPSLKSQLTISKDTSRNQVFLKITSVDTADTATYYCARSYDDYLYYALDYWGQGTSVTVSS
VL: DIVMTQSPATLSVTPGDRVSLSCRASQSISDYLHWYQQKSHESPRLLIKSVSQSISGIPSRFSGSGSGSDFTLSINSVEPEDVGVYYCQNGHSFPLTFGAGTKLELK
Work on B1 yielded an IL-6-dependent proliferation of XG-1 cells (MTT assay, 50 pg/ml IL-6) (fold molar excess) (human IL-6 (human) [3]) of 10 and a percent of the initial counts of 125I-IL-6 still bound after three days (human IL-6 (human) [4]) of less than 5%.

B2: Rat CNTF (ligand, UniProt P20294 1-200, looked up)
chain: MAFAEQTPLTLHRRDLCSRSIWLARKIRSDLTALMESYVKHQGLNKNINLDSVDGVPVASTDRWSEMTEAERLQENLQAYRTFQGMLTKLLEDQRVHFTPTEGDFHQAIHTLMLQVSAFAYQLEELMVLLEQKIPENEADGMPATVGDGGLFEKKLWGLKVLQELSQWTVRSIHDLRVISSHQMGISALESHYGAKDKQM
With B2 the tyrosine phosphorylation of gp130 induced by IL-6 and sIL-6Rα in PC12D cells (gp130 on PC12D cells) was 8 nM and the tyrosine phosphorylation of gp130 induced by IL-6 in PC12D cells (anti-gp130 immunoprecipitation, anti-phosphotyrosine immunoblot) (gp130 on PC12D cells) was 2 nM.
